According to patent publication US20110166062A1 (INDIANA UNIVERSITY RESEARCH AND TECHNOLOGY, published 2011):
Where no end group is shown, it is not given here. [ ]: non-standard residue; d: D form. The star is where a group is joined. PEG 40 kDa = PEG (40 kDa) covalently attached to Cys; Stearoyl = CCCCCCCCCCCCCCCCCC(=O)*; Palmitoyl = CCCCCCCCCCCCCCCC(=O)*; Myristoyl = CCCCCCCCCCCCCC(=O)*; Octanoyl = CCCCCCCC(=O)*; Aib = CC(C)(N)C(=O)O

T1: GIP receptor (UniProt P48546 22-466)
T1 sequence (looked up): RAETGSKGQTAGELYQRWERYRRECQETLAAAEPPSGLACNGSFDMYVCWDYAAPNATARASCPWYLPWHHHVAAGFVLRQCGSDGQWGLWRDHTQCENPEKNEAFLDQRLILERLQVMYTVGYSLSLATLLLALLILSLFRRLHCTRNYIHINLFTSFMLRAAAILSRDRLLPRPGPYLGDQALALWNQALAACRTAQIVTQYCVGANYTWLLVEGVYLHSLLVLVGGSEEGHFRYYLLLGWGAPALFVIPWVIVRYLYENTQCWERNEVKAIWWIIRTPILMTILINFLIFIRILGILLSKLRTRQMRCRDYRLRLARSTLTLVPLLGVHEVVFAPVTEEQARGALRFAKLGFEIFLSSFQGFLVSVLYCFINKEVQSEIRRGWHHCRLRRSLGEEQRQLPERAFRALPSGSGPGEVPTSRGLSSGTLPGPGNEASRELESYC

B1: mt-257 (peptide)
peptide: Y[Aib]QGTFTSDYSIYLDKQAA[Aib]EFVCWLLAG-NH2
modifications: N-terminus assumed
SMILES: CC[C@H](C)[C@H](NC(=O)[C@H](CO)NC(=O)[C@H](Cc1ccc(O)cc1)NC(=O)[C@H](CC(=O)O)NC(=O)[C@H](CO)NC(=O)[C@@H](NC(=O)[C@H](Cc1ccccc1)NC(=O)[C@@H](NC(=O)CNC(=O)[C@H](CCC(N)=O)NC(=O)C(C)(C)NC(=O)[C@@H](N)Cc1ccc(O)cc1)[C@@H](C)O)[C@@H](C)O)C(=O)N[C@@H](Cc1ccc(O)cc1)C(=O)N[C@@H](CC(C)C)C(=O)N[C@@H](CC(=O)O)C(=O)N[C@@H](CCCCN)C(=O)N[C@@H](CCC(N)=O)C(=O)N[C@@H](C)C(=O)N[C@@H](C)C(=O)NC(C)(C)C(=O)N[C@@H](CCC(=O)O)C(=O)N[C@@H](Cc1ccccc1)C(=O)N[C@H](C(=O)N[C@@H](CS)C(=O)N[C@@H](Cc1c[nH]c2ccccc12)C(=O)N[C@@H](CC(C)C)C(=O)N[C@@H](CC(C)C)C(=O)N[C@@H](C)C(=O)NCC(N)=O)C(C)C
B2: mt-282 (peptide)
peptide: Y[Aib]EGTFTSDK(Myristoyl)SIYLDKQAA[Aib]EFVNWLLAG-NH2
modifications: N-terminus assumed
SMILES: CCCCCCCCCCCCCC(=O)NCCCC[C@H](NC(=O)[C@H](CC(=O)O)NC(=O)[C@H](CO)NC(=O)[C@@H](NC(=O)[C@H](Cc1ccccc1)NC(=O)[C@@H](NC(=O)CNC(=O)[C@H](CCC(=O)O)NC(=O)C(C)(C)NC(=O)[C@@H](N)Cc1ccc(O)cc1)[C@@H](C)O)[C@@H](C)O)C(=O)N[C@@H](CO)C(=O)N[C@H](C(=O)N[C@@H](Cc1ccc(O)cc1)C(=O)N[C@@H](CC(C)C)C(=O)N[C@@H](CC(=O)O)C(=O)N[C@@H](CCCCN)C(=O)N[C@@H](CCC(N)=O)C(=O)N[C@@H](C)C(=O)N[C@@H](C)C(=O)NC(C)(C)C(=O)N[C@@H](CCC(=O)O)C(=O)N[C@@H](Cc1ccccc1)C(=O)N[C@H](C(=O)N[C@@H](CC(N)=O)C(=O)N[C@@H](Cc1c[nH]c2ccccc12)C(=O)N[C@@H](CC(C)C)C(=O)N[C@@H](CC(C)C)C(=O)N[C@@H](C)C(=O)NCC(N)=O)C(C)C)[C@@H](C)CC
B3: mt-283 (peptide)
peptide: Y[Aib]EGTFTSDK(Palmitoyl)SIYLDKQAA[Aib]EFVNWLLAG-NH2
modifications: N-terminus assumed
SMILES: CCCCCCCCCCCCCCCC(=O)NCCCC[C@H](NC(=O)[C@H](CC(=O)O)NC(=O)[C@H](CO)NC(=O)[C@@H](NC(=O)[C@H](Cc1ccccc1)NC(=O)[C@@H](NC(=O)CNC(=O)[C@H](CCC(=O)O)NC(=O)C(C)(C)NC(=O)[C@@H](N)Cc1ccc(O)cc1)[C@@H](C)O)[C@@H](C)O)C(=O)N[C@@H](CO)C(=O)N[C@H](C(=O)N[C@@H](Cc1ccc(O)cc1)C(=O)N[C@@H](CC(C)C)C(=O)N[C@@H](CC(=O)O)C(=O)N[C@@H](CCCCN)C(=O)N[C@@H](CCC(N)=O)C(=O)N[C@@H](C)C(=O)N[C@@H](C)C(=O)NC(C)(C)C(=O)N[C@@H](CCC(=O)O)C(=O)N[C@@H](Cc1ccccc1)C(=O)N[C@H](C(=O)N[C@@H](CC(N)=O)C(=O)N[C@@H](Cc1c[nH]c2ccccc12)C(=O)N[C@@H](CC(C)C)C(=O)N[C@@H](CC(C)C)C(=O)N[C@@H](C)C(=O)NCC(N)=O)C(C)C)[C@@H](C)CC
B4: mt-284 (peptide)
peptide: Y[Aib]EGTFTSDK(Stearoyl)SIYLDKQAA[Aib]EFVNWLLAG-NH2
modifications: N-terminus assumed
SMILES: CCCCCCCCCCCCCCCCCC(=O)NCCCC[C@H](NC(=O)[C@H](CC(=O)O)NC(=O)[C@H](CO)NC(=O)[C@@H](NC(=O)[C@H](Cc1ccccc1)NC(=O)[C@@H](NC(=O)CNC(=O)[C@H](CCC(=O)O)NC(=O)C(C)(C)NC(=O)[C@@H](N)Cc1ccc(O)cc1)[C@@H](C)O)[C@@H](C)O)C(=O)N[C@@H](CO)C(=O)N[C@H](C(=O)N[C@@H](Cc1ccc(O)cc1)C(=O)N[C@@H](CC(C)C)C(=O)N[C@@H](CC(=O)O)C(=O)N[C@@H](CCCCN)C(=O)N[C@@H](CCC(N)=O)C(=O)N[C@@H](C)C(=O)N[C@@H](C)C(=O)NC(C)(C)C(=O)N[C@@H](CCC(=O)O)C(=O)N[C@@H](Cc1ccccc1)C(=O)N[C@H](C(=O)N[C@@H](CC(N)=O)C(=O)N[C@@H](Cc1c[nH]c2ccccc12)C(=O)N[C@@H](CC(C)C)C(=O)N[C@@H](CC(C)C)C(=O)N[C@@H](C)C(=O)NCC(N)=O)C(C)C)[C@@H](C)CC
B5: mt-285 (peptide)
peptide: Y[Aib]EGTFTSDKSIYLDKQAA[Aib]EFVNWLLAG-NH2
modifications: N-terminus assumed
SMILES: CC[C@H](C)[C@H](NC(=O)[C@H](CO)NC(=O)[C@H](CCCCN)NC(=O)[C@H](CC(=O)O)NC(=O)[C@H](CO)NC(=O)[C@@H](NC(=O)[C@H](Cc1ccccc1)NC(=O)[C@@H](NC(=O)CNC(=O)[C@H](CCC(=O)O)NC(=O)C(C)(C)NC(=O)[C@@H](N)Cc1ccc(O)cc1)[C@@H](C)O)[C@@H](C)O)C(=O)N[C@@H](Cc1ccc(O)cc1)C(=O)N[C@@H](CC(C)C)C(=O)N[C@@H](CC(=O)O)C(=O)N[C@@H](CCCCN)C(=O)N[C@@H](CCC(N)=O)C(=O)N[C@@H](C)C(=O)N[C@@H](C)C(=O)NC(C)(C)C(=O)N[C@@H](CCC(=O)O)C(=O)N[C@@H](Cc1ccccc1)C(=O)N[C@H](C(=O)N[C@@H](CC(N)=O)C(=O)N[C@@H](Cc1c[nH]c2ccccc12)C(=O)N[C@@H](CC(C)C)C(=O)N[C@@H](CC(C)C)C(=O)N[C@@H](C)C(=O)NCC(N)=O)C(C)C
B6: mt-323 (peptide)
peptide: Y[Aib]QGTFTSDYSIYLDKQAA[Aib]EFVNWLLAGGPSSGAPPPSK(Octanoyl)-NH2
modifications: N-terminus assumed
SMILES: CCCCCCCC(=O)NCCCC[C@H](NC(=O)[C@H](CO)NC(=O)[C@@H]1CCCN1C(=O)[C@@H]1CCCN1C(=O)[C@@H]1CCCN1C(=O)[C@H](C)NC(=O)CNC(=O)[C@H](CO)NC(=O)[C@H](CO)NC(=O)[C@@H]1CCCN1C(=O)CNC(=O)CNC(=O)[C@H](C)NC(=O)[C@H](CC(C)C)NC(=O)[C@H](CC(C)C)NC(=O)[C@H](Cc1c[nH]c2ccccc12)NC(=O)[C@H](CC(N)=O)NC(=O)[C@@H](NC(=O)[C@H](Cc1ccccc1)NC(=O)[C@H](CCC(=O)O)NC(=O)C(C)(C)NC(=O)[C@H](C)NC(=O)[C@H](C)NC(=O)[C@H](CCC(N)=O)NC(=O)[C@H](CCCCN)NC(=O)[C@H](CC(=O)O)NC(=O)[C@H](CC(C)C)NC(=O)[C@H](Cc1ccc(O)cc1)NC(=O)[C@@H](NC(=O)[C@H](CO)NC(=O)[C@H](Cc1ccc(O)cc1)NC(=O)[C@H](CC(=O)O)NC(=O)[C@H](CO)NC(=O)[C@@H](NC(=O)[C@H](Cc1ccccc1)NC(=O)[C@@H](NC(=O)CNC(=O)[C@H](CCC(N)=O)NC(=O)C(C)(C)NC(=O)[C@@H](N)Cc1ccc(O)cc1)[C@@H](C)O)[C@@H](C)O)[C@@H](C)CC)C(C)C)C(N)=O

target: glucagon receptor (UniProt P47871 26-477, limits assumed); test: cell-based or functional assay
Sequence (P47871 26-477 limits assumed): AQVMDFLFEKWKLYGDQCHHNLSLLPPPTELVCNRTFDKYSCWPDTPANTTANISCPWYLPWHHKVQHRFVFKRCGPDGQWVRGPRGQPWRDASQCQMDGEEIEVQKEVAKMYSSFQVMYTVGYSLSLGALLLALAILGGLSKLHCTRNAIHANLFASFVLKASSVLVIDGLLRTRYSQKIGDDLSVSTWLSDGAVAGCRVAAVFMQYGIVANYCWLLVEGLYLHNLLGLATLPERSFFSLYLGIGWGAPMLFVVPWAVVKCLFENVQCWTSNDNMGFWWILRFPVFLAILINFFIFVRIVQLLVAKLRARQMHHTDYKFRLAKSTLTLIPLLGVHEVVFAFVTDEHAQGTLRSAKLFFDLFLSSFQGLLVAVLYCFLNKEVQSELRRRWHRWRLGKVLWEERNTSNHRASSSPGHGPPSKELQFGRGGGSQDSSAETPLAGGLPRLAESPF

Binder | EC50
Y[Aib]EGTFTSDYSIYLDKQAA[Aib]EFVNWLLAGGPSSGAPPPSC-NH2 [mt-256] | 58.9 nM
B1 | 0.211 nM
Y[Aib]EGTFTSDYSIYLDKQAA[Aib]EFVNWLLAGGPSSGAPPPSK-NH2 [mt-263] | 3.18 nM
Y[Aib]QGTFTSDYSIYLDKQAA[Aib]EFVC(PEG 40 kDa)WLLAG-NH2 [mt-281] | 0.282 nM
Y[Aib]EGTFTSDYSIYLDKQAA[Aib]EFVNWLLAGGPSSGAPPPSC(PEG 40 kDa)-NH2 [mt-295] | 87.3 nM
Y[Aib]EGTFTSDK(Myristoyl)SIYLDKQAA[Aib]EFVCWLLAGGPSSGAPPPS-NH2 (also: C-terminal amidation listed at position 40 of 39-residue chain) [mt-337] | 106 nM
Y[Aib]EGTFTSDKSIYLDKQAA[Aib]EFVCWLLAGGPSSGAPPPS-NH2 (also: C-terminal amidation listed at position 40 of 39-residue chain) [mt-338] | 295 nM

target: T1, GIP receptor; test: cell-based or functional assay

Binder | EC50
Y[Aib]EGTFTSDYSIYLDKQAA[Aib]EFVNWLLAGGPSSGAPPPSK-NH2 [mt-263] | 0.0031 nM
B2 | 0.0133 nM
B3 | 0.0122 nM
B4 | 0.0186 nM
B5 | 0.028 nM
B6 | 0.0084 nM
Y[Aib]EGTFTSDK(Myristoyl)SIYLDKQAA[Aib]EFVCWLLAGGPSSGAPPPS-NH2 (also: C-terminal amidation listed at position 40 of 39-residue chain) [mt-337] | 0.008 nM
Y[Aib]EGTFTSDKSIYLDKQAA[Aib]EFVCWLLAGGPSSGAPPPS-NH2 (also: C-terminal amidation listed at position 40 of 39-residue chain) [mt-338] | 0.0234 nM
